Our source for the IC50 values is patent EP0556111A1.

Broadly, the IC50 is the concentration needed to halve the response being measured. High values mean weaker potency, low ones greater potency.

Experiment [1] has as its target reagent Mα2-3/peroxidase, obtained by classical chemical coupling.
In experiment [2] the target is hybrid F(ab)₂-PhoA (complex hybrid protein alkaline phosphatase/F(ab)₂ of antibody Mα2-3) (E. coli) [phosphatase: P00634].

On to toxin alpha (from UniProt P01426), for which the IC50 in experiment [1] came out at 9 nM; in experiment [2], 20 nM.
